Data set [1] has as its target SARP domain of Streptomyces coelicolor AfsR (residues 1 to 270) (S. coelicolor) (UniProt P25941). In words: cryo-EM structure; SARP-TIC: 32 uM SARP preincubated with 5 uM afsS promoter DNA scaffold, mixed with 4 uM RNAP core, 16 uM σ^HrdB, 16 uM CarD, 32 uM RbpA; 25°C; 20 mM Tris-HCl pH 8.0, 50 mM KCl, 5 mM MgCl2, 3 mM DTT; Superose 6; nominal resolution 3.35 Å, SARP region 3.77 Å.

Data set [2] deals with T1, Streptomyces coelicolor RNA polymerase β subunit (S. coelicolor, UniProt Q9L0L0 1-1161).
T1 construct: RNA polymerase subunit beta, S. coelicolor; Stood in the assay as a subunit of the RNAP core in the holoenzyme; also called RNAP β; β flap; source: S. coelicolor RNAP purified as described previously [37]
The data set is described as above. Particulars: both partners purified.

In data set [3] the target is T2, Streptomyces coelicolor RNA polymerase α subunit (S. coelicolor, UniProt P60312 1-340).
T2 construct: RNA polymerase subunit alpha, S. coelicolor; Stood in the assay as a subunit of the RNAP core in the holoenzyme; density for one αCTD is seen; also called αCTD (C-terminal domain of the α subunit); source: S. coelicolor RNAP purified as described previously [37]
T2 sequence: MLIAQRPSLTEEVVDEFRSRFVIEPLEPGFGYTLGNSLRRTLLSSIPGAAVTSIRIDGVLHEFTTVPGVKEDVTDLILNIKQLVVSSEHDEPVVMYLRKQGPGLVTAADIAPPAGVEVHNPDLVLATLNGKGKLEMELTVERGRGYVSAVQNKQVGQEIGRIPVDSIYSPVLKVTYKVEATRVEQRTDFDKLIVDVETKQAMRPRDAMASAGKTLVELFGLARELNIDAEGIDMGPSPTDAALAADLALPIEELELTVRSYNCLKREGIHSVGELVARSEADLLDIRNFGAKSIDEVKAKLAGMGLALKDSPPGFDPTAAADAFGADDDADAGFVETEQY
The data set is described as above. Particulars: both partners purified.

The target of data set [4] is T3, Streptomyces coelicolor RNA polymerase sigma factor σ^HrdB (S. coelicolor, UniProt P18183 1-511).
T3 construct: principal sigma factor HrdB, S. coelicolor; region 1.1 disordered in the map; Stood in the assay as part of the RNAP σ^HrdB-holoenzyme; also called σ subunit; σ R4 (region 4); source: purified as described previously [37]
T3 sequence: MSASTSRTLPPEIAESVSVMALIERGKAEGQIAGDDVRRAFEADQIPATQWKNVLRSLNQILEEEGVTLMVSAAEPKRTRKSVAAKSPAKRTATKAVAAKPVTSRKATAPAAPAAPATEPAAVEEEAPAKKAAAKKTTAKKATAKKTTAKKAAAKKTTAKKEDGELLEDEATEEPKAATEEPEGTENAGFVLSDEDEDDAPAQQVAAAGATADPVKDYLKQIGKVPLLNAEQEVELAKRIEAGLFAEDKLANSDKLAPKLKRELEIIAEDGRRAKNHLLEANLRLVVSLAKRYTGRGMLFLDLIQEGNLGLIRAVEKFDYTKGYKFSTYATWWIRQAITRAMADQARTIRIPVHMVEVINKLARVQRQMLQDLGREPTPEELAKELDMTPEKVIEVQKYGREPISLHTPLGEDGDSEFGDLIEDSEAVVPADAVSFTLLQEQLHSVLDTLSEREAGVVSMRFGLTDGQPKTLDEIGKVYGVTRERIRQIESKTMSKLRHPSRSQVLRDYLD
Described as above. Particulars: both partners purified.

For data set [5], the target named is T4, Streptomyces coelicolor RNA polymerase β′ subunit (S. coelicolor, UniProt Q8CJT1 1-1299).
T4 construct: RNA polymerase subunit beta', S. coelicolor; Stood in the assay as a subunit of the RNAP core in the holoenzyme; also called RNAP β′; β′ ZBD; source: S. coelicolor RNAP purified as described previously [37]
Described as above. Particulars: both partners purified.

Data set [6] concerns the molecule itself. The experiment in a line: SEC; Superdex 200; 20 mM Tris pH 8.0, 150 mM NaCl, 5% glycerol; protein alone, without DNA.
Substrate in data set [7]: Nc1ncnc2c1ncn2[C@@H]1O[C@H](COP(=O)(O)OP(=O)(O)OP(=O)(O)O)[C@@H](O)[C@H]1O
In words: Malachite green phosphate ATPase assay. Particulars: phosphomimetic 4E mutant, phosphatase treatment not stated, 5 μM protein, 20 mM Tris-HCl pH 7.5, 150 mM NaCl, 5 mM MgCl2, 30 min. It is filed as biochemical, Streptomyces coelicolor.

Data set [8] concerns the molecule itself. In words: cryo-EM structure; AfsR_(T337A)-TIC: 32 uM AfsR_(T337A) preincubated with 5 uM afsS promoter DNA and 1 mM ATPγS, mixed with RNAP core, σ^HrdB, CarD, RbpA; assembling buffer; Superose 6; nominal resolution 3.63 Å, SARP region 5.10 Å.
For data set [9], the target named is T1, Streptomyces coelicolor RNA polymerase …. The description is as above. Particulars: both partners purified.
For data set [10], the target named is T4, Streptomyces coelicolor RNA polymerase …. Described as above. Particulars: both partners purified.

B1: SARP domain of Streptomyces coelicolor AfsR (residues 1 to 270) (domain or fragment, S. coelicolor, UniProt P25941 1-270, looked up)
chain: MDGGPRVPEQRRPGFPAEEEESGALRFGVLGPVRAWRDGETLATGSPQQRALLAALLLREGRTATAGELIDALWGEEPPSQALAAVRTYASRLRKVLDPGVLVSESGGYAVRGLAEGALDLARAQDLASAAEKARSAGDLCHARDLLRRALDLWDGEVLAGVPGPYAQTQRVRLGEWRLQLLETRLDMDLDQGCHAEAVSELTALTAAHPLRERLRELLMLALYRSGRQAEALAVYADTRRLLADELGVDPRPGLQELQQRILQADPALA
notes: AfsR, S. coelicolor M145, SARP domain, residues 1 to 270 (Met1-Ala270); Two protomers (upstream and downstream) stand on the afs box DNA in SARP-TIC; also called isolated SARP domain; wild-type SARP; source: E. coli BL21(DE3), purified (nickel-NTA, SEC Superdex 200)
In data set [1], B1 showed a stoichiometry N of 2. In addition, the binding result in [2], in data set [3], in data set [4] and in [5] was “binds” throughout.

B2: AfsR 4E mutant (S391E/T337E/T506E/S953E) (natural protein, S. coelicolor, UniProt P25941 1-993, looked up)
chain: MDGGPRVPEQRRPGFPAEEEESGALRFGVLGPVRAWRDGETLATGSPQQRALLAALLLREGRTATAGELIDALWGEEPPSQALAAVRTYASRLRKVLDPGVLVSESGGYAVRGLAEGALDLARAQDLASAAEKARSAGDLCHARDLLRRALDLWDGEVLAGVPGPYAQTQRVRLGEWRLQLLETRLDMDLDQGCHAEAVSELTALTAAHPLRERLRELLMLALYRSGRQAEALAVYADTRRLLADELGVDPRPGLQELQQRILQADPALAELSAATAETATATLRPAQLPATVSDFTGRAAFVRELSDVLSAASGESASGRVMAVSALAGIGGVGKETLAVHVAHRARAAFPDGQLYVDLQGAGARPAEPETVLGSFLRALGTADSAIPDELEERAALYRSVLDGRRVLVLLDNARDAAQVRPLLPGTDGCAALVTARVRMVDLAGAHLVDLDVMAPEEALALFTKIVGEERVASERQAALDVVGACGFLPLAIRIAASRLAARREWTVSVLAAKLADERRRLDELQAGDQAVEATFELGYGQLEPAQARAFRLLGLADGPDISLAAAAAVLDLPAQDTEDLLESLVDTSLLESAAPGRYRFHDLVRLYARACAERTERDGNAPSERGAALSRLLDFYLATAAGVYAIERPGDRLVDGLEPTEYPGLTFTEGSAALDWLYTEAAPLLACVRQSAGTARLRRAVDLLWAAKDLTESGANSHQYEATARAMCDATGSAADTRAEGRARTVLSDVLLVSGRIEHAEEEARLAMRLAGSAEDSAAVSWVANNRGLVCLHQRRYAEGKGLFHQAIAGFRATDNRAGEASALSNLSRAQLGMGNVAEAVDIARQGLAVYAELGRTMRLANGHFALGVALTRAGRHEEALGEFAEALDLFGDHRQRLWEGATNFRLAEVHLAAGRPSSAAQHAEQALALGCIGGDRMRGNVLALLGRALEALGQADRARACWREALSLYEQHDAQEVGEVRALLARSVAR
notes: AfsR, S. coelicolor, with glutamate substitutions at all 4 phosphorylation sites of NOD and TPR; Likely made like wild-type AfsR (pET28a, E. coli BL21(DE3))
Take B2: in [6], the binding result is recorded as “binds”. In data set [7], the Km worked out at 995 ± 152 µM and the catalytic constant (kcat) amounted to 0.147 ± 0.00841 s⁻¹.

B3: AfsR T337A mutant (natural protein, S. coelicolor, UniProt P25941 1-993, looked up)
chain: MDGGPRVPEQRRPGFPAEEEESGALRFGVLGPVRAWRDGETLATGSPQQRALLAALLLREGRTATAGELIDALWGEEPPSQALAAVRTYASRLRKVLDPGVLVSESGGYAVRGLAEGALDLARAQDLASAAEKARSAGDLCHARDLLRRALDLWDGEVLAGVPGPYAQTQRVRLGEWRLQLLETRLDMDLDQGCHAEAVSELTALTAAHPLRERLRELLMLALYRSGRQAEALAVYADTRRLLADELGVDPRPGLQELQQRILQADPALAELSAATAETATATLRPAQLPATVSDFTGRAAFVRELSDVLSAASGESASGRVMAVSALAGIGGVGKATLAVHVAHRARAAFPDGQLYVDLQGAGARPAEPETVLGSFLRALGTADSAIPDSLEERAALYRSVLDGRRVLVLLDNARDAAQVRPLLPGTDGCAALVTARVRMVDLAGAHLVDLDVMAPEEALALFTKIVGEERVASERQAALDVVGACGFLPLAIRIAASRLAARRTWTVSVLAAKLADERRRLDELQAGDQAVEATFELGYGQLEPAQARAFRLLGLADGPDISLAAAAAVLDLPAQDTEDLLESLVDTSLLESAAPGRYRFHDLVRLYARACAERTERDGNAPSERGAALSRLLDFYLATAAGVYAIERPGDRLVDGLEPTEYPGLTFTEGSAALDWLYTEAAPLLACVRQSAGTARLRRAVDLLWAAKDLTESGANSHQYEATARAMCDATGSAADTRAEGRARTVLSDVLLVSGRIEHAEEEARLAMRLAGSAEDSAAVSWVANNRGLVCLHQRRYAEGKGLFHQAIAGFRATDNRAGEASALSNLSRAQLGMGNVAEAVDIARQGLAVYAELGRTMRLANGHFALGVALTRAGRHEEALGEFAEALDLFGDHRQRLWEGATNFRLAEVHLAAGRPSSAAQHAEQALALGCIGGDRMRGNVLALLGRALSALGQADRARACWREALSLYEQHDAQEVGEVRALLARSVAR
notes: AfsR, S. coelicolor, full-length protein with T337A; Preincubated with afsS promoter DNA and 1 mM ATPγS for AfsR-TIC; Vector and host of the mutant are surmised from the wild type
For the molecule B3, the binding result in data set [8], in data set [9] and in [10] was “binds” in each case.
